1 molecule from patent publication US20080274112A1, “Nogo Receptor Antagonists” (priority 2003, published 2008) can be followed below.

One may read the EC50 as the concentration needed to bring the measured effect to its halfway point.

The target in experiment [1] is T1, mouse NgR1 (Mus musculus, UniProt Q99PI8).
T1 sequence (Q99PI8 27-447): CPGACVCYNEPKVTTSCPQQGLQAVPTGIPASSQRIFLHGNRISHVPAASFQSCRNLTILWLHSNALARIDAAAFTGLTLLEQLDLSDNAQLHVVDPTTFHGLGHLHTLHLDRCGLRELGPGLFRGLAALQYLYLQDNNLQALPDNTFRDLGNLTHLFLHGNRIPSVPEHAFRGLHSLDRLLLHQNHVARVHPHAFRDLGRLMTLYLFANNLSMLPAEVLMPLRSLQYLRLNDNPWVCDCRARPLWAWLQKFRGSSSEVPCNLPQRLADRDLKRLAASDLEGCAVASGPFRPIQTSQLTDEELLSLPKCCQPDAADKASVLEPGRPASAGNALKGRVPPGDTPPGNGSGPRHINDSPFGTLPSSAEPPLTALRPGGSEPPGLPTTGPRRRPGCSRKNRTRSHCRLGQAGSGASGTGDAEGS
The experiment in a line: Antibody binding to mouse Nogo receptor-1.

Experiment [2] has as its target T2, rat NgR1 (sNgR310) fragments (Rattus norvegicus, UniProt Q99M75, A303T/C287S/C43R/E284G/T53A).
T2 construct: made in house
T2 sequence (Q99M75 27-310 C43R/T53A/E284G/C287S/A303T): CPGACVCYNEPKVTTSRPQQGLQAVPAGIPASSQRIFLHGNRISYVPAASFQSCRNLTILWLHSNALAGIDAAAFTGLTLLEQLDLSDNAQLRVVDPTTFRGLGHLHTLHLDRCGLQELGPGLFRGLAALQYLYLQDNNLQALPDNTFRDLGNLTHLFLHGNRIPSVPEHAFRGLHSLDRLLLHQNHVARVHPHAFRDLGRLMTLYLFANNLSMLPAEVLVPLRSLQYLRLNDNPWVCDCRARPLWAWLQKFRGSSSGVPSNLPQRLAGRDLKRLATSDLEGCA
Kind of experiment: Western blot of acid/CNBr fragments of sNgR310 probed with 7E11. Type of experiment: binding. Here is the method: (§1) A recombinant fragment of the rat NgR1 that contains all 8 LRR domains and the N- and C-terminal caps (sNgR310) was treated with either acid or cyanogen bromide (CNBr) and separated the fragments by gel electrophoresis. Untreated sNgR310 migrates with an apparent molecular weight of 42 kDa. Acid treatment of sNgR310 produced two major cleavage products of 15 kDa (aa 27-aa 122) and 30 kDa (aa 123-aa 310). CNBr treatment generated three fragments, a 33/35 kDa doublet (aa 27-aa 229), which may represent fragments with heterogeneous glycosylation, a 10 kDa product (aa 241-aa 310), and an 11-amino-acid fragment (aa 230-aa 240), which is not retained on the gel. […] Both the 15 kDa acid fragment and the 35 kDa CNBr fragment contained the sequence LDLSDNAQLRVVDPTT (SEQ ID NO: 1), consistent with 7E11 binding to a single epitope on NgR1.
Background: Immunoblotting shows a protein as a band on a membrane.

Experiment [3] addresses T3, rat NgR1 (sNgR310) fragments (Rattus norvegicus, UniProt Q99M75, C43R/T53A).
T3 construct: made in house
T3 sequence (Q99M75 27-122 C43R/T53A): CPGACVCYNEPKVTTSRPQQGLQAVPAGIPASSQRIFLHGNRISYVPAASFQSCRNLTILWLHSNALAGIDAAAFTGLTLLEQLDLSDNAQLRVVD
The experiment is described as above. The class given is binding. Here is the method:
as §1

Experiment [4] has as its target T4, rat NgR1 (sNgR310) fragments (Rattus norvegicus, UniProt Q99M75, A303T/C287S/E284G).
T4 construct: made in house
T4 sequence (Q99M75 123-310 E284G/C287S/A303T): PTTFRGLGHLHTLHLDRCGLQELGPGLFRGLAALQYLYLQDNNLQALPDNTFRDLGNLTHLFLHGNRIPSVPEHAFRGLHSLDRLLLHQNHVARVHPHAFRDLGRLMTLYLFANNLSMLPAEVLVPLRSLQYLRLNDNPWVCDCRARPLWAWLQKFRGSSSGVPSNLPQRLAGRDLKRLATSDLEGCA
The experiment is described as above. Type of experiment: binding. As for the experimental part:
as §1

Experiment [5] deals with T5, rat NgR1 (sNgR310) fragments (Rattus norvegicus, UniProt Q99M75, A303T/C287S/E284G).
T5 construct: made in house
T5 sequence (Q99M75 241-310 E284G/C287S/A303T): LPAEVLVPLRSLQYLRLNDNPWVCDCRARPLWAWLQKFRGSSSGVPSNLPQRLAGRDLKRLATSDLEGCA
The description is as above. The class given is binding. As for the experimental part:
as §1
The source holds these as a separate data set.

Experiment [6] concerns the target T6, rat NgR1 (sNgR310) fragments (Rattus norvegicus, UniProt Q99M75, C43R/T53A).
T6 construct: made in house
T6 sequence (Q99M75 27-229 C43R/T53A): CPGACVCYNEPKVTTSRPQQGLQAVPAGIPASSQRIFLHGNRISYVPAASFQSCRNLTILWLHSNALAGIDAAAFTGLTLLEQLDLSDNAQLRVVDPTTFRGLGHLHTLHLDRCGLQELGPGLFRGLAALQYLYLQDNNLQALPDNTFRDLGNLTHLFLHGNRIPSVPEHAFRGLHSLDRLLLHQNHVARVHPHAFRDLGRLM
The experiment is described as above. The class given is binding. As for the experimental part: as §1
This is another data set of the same source.

Experiment [7] deals with T7, MAG + sNogoR344-Fc (Rattus norvegicus, UniProt Q99M75, A303T/C287S/C43R/E284G/T53A).
T7 construct: amino acid residues 26-344 of rat Nogo receptor-1; made in house
T7 sequence (Q99M75 26-344 C43R/T53A/E284G/C287S/A303T): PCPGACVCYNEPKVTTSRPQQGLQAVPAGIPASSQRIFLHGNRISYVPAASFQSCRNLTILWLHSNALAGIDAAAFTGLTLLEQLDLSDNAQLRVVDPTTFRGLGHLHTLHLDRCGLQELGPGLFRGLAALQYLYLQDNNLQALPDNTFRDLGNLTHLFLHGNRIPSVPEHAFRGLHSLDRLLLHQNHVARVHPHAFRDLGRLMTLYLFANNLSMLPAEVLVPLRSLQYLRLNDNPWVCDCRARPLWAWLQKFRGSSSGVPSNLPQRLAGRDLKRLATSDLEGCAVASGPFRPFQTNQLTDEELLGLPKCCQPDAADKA
Kind of experiment: mAb/Fab inhibition of MAG binding to sNogoR344-Fc (ELISA). Here is the method:
0.5 μg of a soluble Nogo receptor-1 fusion protein comprising amino acid residues 26-344 of rat Nogo receptor-1 and the hinge and Fc region of the rat IgG1 molecule (sNogoR344-Fc) produced as described below was immobilized on 250 μg of protein-A- or wheatgerm agglutinin-conjugated SPA beads (Amersham Pharmacia Biotech) for 2 hours at 25° C. SPA beads coupled with Fc-sNogoR-1, anti-Nogo receptor-1 mAb and 1 μl ^125I-Nogo66 (Amersham, 2000 Ci/mmol, 1 nM) in 50 μl of the HEPES-buffered incubation medium (10 mM HEPES, pH 7.4, 0.1% bovine serum albumin, 0.1% ovalbumin, 2 mM MgCl2, 2 mM CaCl2 and protease inhibitors) was added to each sample well. After 16 hours, radioactivity was measured in quadruplicate samples using a TopCount® (Packard). IC50 values were calculated from a curve-fit analysis (FIG. 3) (PRISM, GraphPad Software, NJ). In some experiments, we also used AP-ligand conjugates (e.g. AP-Nogo66) and detected binding by monitoring alkaline phosphatase activity. We also assayed the ability of the mAbs to block binding of the ligands MAG-Fc and AP-OM-gp to Nogo receptor-1.
The calculated IC50 for Nogo66 for 7E11 and 1H2 were 400 nM and 60 nM, respectively. The data from ELISAs monitoring mAb-mediated inhibition of binding of the three ligands to Nogo receptor-1 are summarized in Table 6.
We also performed ELISA binding assays using the Fab-phage 14D5.

B1: 7E11: murine monoclonal anti-Nogo receptor-1 antibody, IgG1 kappa, ATCC PTA-4587; immunogen rat Nogo receptor-1 residues 110-125 (antibody, V domains shown)
VH: VQLQESGAELVMPGASVKMSCKASGYTFTDYWMHWVKQRPGQGLEWIGAIDPSDSYSSYNQNFKGKATLTVDGSSSTAYMQLSSLTSEDSAVYYCARRITEAGAWFAYWGQGTTVT
VL: DVVMTQTPLSLPVSLGDQASISCRSSQSLVHSNGNTYLHWYLQKPGQSPKLLIYKVSNRFSGVPDRFSGSGSGTDFTLKISRVDAEDLGVYFCSQSTHVPFTFGGGTKLEIKRADAAPTVSISHH
Turning to B1, in experiment [1], the “binding to mouse NgR1” value is given as “poorly”. The “7E11 binding to intact rat NgR1 (aa 27-aa 310)” value in experiment [2] is recorded as “bound”. Further, the “7E11 binding to 15 kDa acid fragment (aa 27-aa 122)” value in experiment [3] is given as “bound”. Also, in experiment [4], the “7E11 binding to 30 kD acid fragment (aa 123-aa 310)” value is on record as “did not bind”. The “7E11 binding to 10 kDa CNBr fragment (aa 241-aa 310)” value in experiment [5] is on record as “did not bind”. The “7E11 binding to 35 kDa CNBr fragment (aa 27-aa 229)” value in experiment [6] is given as “bound”. The “inhibition of binding of MAG to sNogoR344-Fc” value in experiment [7] is given as “inhibited binding”. In addition, the “percent displacement, MAG + sNogoR344-Fc” value in experiment [7] (30 nM antibody) is listed as 30 nM (60%). In experiment [7] (curve-fit analysis), the 50% effective concentration (EC50) is 500 nM.
